Target: T1, human CD73 expressed on the cell surface (human, UniProt P21589 27-549)
T1 construct: whole, on cells; also called surface CD73
T1 sequence (looked up): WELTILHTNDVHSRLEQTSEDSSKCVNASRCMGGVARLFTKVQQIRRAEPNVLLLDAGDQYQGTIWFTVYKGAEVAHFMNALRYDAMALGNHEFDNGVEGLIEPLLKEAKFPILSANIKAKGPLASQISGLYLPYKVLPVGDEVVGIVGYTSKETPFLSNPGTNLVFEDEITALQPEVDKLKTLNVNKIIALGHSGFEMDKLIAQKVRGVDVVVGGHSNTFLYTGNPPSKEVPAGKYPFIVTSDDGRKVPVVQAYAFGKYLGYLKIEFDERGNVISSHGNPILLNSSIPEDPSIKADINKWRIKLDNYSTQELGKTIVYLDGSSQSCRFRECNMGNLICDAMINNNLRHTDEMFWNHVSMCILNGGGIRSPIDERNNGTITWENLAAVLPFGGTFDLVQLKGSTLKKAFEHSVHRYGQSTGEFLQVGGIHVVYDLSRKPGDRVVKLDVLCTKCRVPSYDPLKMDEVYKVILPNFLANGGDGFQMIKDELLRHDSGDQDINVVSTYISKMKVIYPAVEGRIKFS
Experiment: flow cytometry, biotinylated antibody in human whole blood, CD8+ T cells, streptavidin-APC
Method: Whole blood target engagement was assessed by flow cytometry using whole blood from healthy human donors. Briefly, biotinylated antibodies were incubated with whole blood for 30 minutes prior to red blood cell lysis and fixation. Fixed cells were stained for CD3 and CD8 to identify CD8+ T cells, and streptavidin-APC to detect biotin. After staining, the cell were washed and subjected to flow cytometry analysis.

B1: anti-CD73 antibody 356.B (antibody, human IgG4 S228P, kappa, V domains shown)
VH: QVQLQESGPGLVKPSETLSLTCTVSGGSIEGRYWSWIRQPPGKGLEWIGYIYGSGSTKYNPSLKSRVTISVDTSKNQFSLKLSSVTAADTAVYYCARESQESPYNNWFDPWGQGTLVTVSS
VL: DIQMTQSPSSVSASVGDRVTITCRASQGISSWLAWYQQKPGKAPKLLIYAASSLQSGVPSRFSGSGSGTDFTLTISSLQPEDFATYYCQQGNSFPRTFGGGTKVEIKR
notes: IgG4 S228P/L235E format; The last heavy chain residue X is K or absent; Biotinylated in the whole blood flow cytometry assay
- EC50 (read off the curve): ~6 ng/mL

From patent publication US20230039109A1 (Novartis, published 2023)
